T1: human LAMA4 LG4-5 modules displayed on 293 cells (human, UniProt Q16363 1453-1821)
T1 construct: pDisplay construct on 293 cells; vector tags and anchor not written here
T1 sequence: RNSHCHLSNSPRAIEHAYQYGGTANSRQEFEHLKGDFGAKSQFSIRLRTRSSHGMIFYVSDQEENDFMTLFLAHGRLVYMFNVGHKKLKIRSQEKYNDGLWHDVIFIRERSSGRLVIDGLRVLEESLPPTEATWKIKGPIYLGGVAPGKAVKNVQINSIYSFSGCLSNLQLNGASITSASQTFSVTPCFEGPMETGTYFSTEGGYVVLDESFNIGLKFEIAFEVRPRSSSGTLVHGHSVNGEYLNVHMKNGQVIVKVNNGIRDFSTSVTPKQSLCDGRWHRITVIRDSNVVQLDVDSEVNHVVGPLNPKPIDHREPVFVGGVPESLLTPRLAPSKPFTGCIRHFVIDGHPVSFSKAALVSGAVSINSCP

T2: human LAMA4 LG1-3 modules displayed on 293 cells (human, UniProt Q16363 830-1430)
T2 construct: pDisplay construct on 293 cells; vector tags and anchor not written here
T2 sequence: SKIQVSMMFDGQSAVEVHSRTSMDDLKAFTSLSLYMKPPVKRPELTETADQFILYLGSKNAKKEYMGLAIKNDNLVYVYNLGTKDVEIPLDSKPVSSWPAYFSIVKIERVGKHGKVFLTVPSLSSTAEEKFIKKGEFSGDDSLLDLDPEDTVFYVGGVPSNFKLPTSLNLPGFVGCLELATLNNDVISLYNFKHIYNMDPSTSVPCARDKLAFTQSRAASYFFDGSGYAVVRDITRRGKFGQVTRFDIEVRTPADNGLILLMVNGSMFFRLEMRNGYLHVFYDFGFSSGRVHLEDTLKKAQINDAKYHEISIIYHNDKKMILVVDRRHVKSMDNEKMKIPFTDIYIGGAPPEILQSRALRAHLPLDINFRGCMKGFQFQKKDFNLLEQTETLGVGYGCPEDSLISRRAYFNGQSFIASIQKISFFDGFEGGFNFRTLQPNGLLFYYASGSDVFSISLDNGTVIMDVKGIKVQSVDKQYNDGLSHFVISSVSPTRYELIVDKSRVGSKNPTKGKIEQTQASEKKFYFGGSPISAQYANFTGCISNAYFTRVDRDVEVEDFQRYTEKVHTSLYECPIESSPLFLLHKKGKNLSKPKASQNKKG

T3: human LAMA4 G domain (LG1-5) displayed on 293 cells (human, UniProt Q16363 830-1821)
T3 construct: the vector's tags and membrane anchor are not written here; also called LAMA4-displaying human 293 cells; full length
T3 sequence: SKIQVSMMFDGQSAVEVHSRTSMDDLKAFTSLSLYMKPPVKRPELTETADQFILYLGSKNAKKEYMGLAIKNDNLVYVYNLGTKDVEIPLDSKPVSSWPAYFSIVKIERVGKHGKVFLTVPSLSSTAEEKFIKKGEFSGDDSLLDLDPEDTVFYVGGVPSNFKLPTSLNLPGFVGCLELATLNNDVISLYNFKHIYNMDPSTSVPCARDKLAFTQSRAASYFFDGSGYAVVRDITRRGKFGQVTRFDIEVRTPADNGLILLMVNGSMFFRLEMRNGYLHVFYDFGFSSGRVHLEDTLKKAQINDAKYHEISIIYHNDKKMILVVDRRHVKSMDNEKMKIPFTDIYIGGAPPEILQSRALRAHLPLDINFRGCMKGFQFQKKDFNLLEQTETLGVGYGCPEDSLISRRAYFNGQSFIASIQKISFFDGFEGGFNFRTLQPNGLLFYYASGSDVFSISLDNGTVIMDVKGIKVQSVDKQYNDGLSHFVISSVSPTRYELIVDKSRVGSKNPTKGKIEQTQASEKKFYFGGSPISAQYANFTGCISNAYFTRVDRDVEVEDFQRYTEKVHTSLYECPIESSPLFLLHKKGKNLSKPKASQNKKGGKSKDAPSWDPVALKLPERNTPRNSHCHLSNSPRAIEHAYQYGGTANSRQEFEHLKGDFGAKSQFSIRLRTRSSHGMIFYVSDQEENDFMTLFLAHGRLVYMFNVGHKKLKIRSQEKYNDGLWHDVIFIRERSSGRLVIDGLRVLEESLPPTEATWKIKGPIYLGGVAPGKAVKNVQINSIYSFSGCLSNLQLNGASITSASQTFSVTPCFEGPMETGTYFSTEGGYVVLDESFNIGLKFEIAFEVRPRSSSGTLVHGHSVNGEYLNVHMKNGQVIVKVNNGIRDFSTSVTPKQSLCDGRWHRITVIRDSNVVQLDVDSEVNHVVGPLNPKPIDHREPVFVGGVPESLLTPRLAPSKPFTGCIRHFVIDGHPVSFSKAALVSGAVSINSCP

B1: mouse monoclonal antibody 19C12 (antibody, V domains shown)
VH: QVQLQQSGAELVKPGASVKISCKASGYAFSTYWMNWVKQRPGEGLEWIGQIYPGDGDTNYNGKFKGKATLTADKSSSTAYMQLSSLTSEDSAVYFCARSDGYYDYWGQGTTLTVSS
VL: NIVLTQSPASLAVSLGQRATISCRASESVDSYGTSFMHWYQQKPGQPPKLLICLASSLESGVPARFSGSGSRTDFTLTIDPVEADDAATYYCQQNNEDPPTFGAGTKLELKR
notes: Mouse hybridoma antibody; Mouse IgG2b was used as its isotype control; also called m19C12
B2: mouse MCAM-Fc fusion protein (Fc fusion, UniProt Q8R2Y2 24-563, looked up)
chain: VPGEEKQPVPTPDLVEAEVGSTALLKCGPSRASGNFSQVDWFLIHKERQILIFRVHQGKGQREPGEYEHRLSLQDSVATLALSHVTPHDERMFLCKSKRPRLQDHYVELQVFKAPEEPTIQANVVGIHVDRQELREVATCVGRNGYPIPQVLWYKNSLPLQEEENRVHIQSSQIVESSGLYTLKSVLSARLVKEDKDAQFYCELSYRLPSGNHMKESKEVTVPVFYPAEKVWVEVEPVGLLKEGDHVTIRCLTDGNPQPHFTINKKDPSTGEMEEESTDENGLLSLEPAEKHHSGLYQCQSLDLETTITLSSDPLELLVNYVSDVQVNPTAPEVQEGESLTLTCEAESNQDLEFEWLRDKTGQLLGKGPVLQLNNVRREAGGRYLCMASVPRVPGLNRTQLVSVGIFGSPWMALKERKVWVQENAVLNLSCEASGHPQPTISWNVNGSATEWNPDPQTVVSTLNVLVTPELLETGAECTASNSLGSNTTTIVLKLVTLTTLIPDSSQTTGLSTLTVSPHTRANSTSTEKKLPQPESKGVV
notes: extracellular domain; Made in house; also called mMCAM-Fc; 650-conjugated mouse MCAM-Fc; not shown: human IgG1 (Fc part of the fusion)

What was measured:
Assay in all cases: flow cytometry on 293 cells displaying LAMA4 G-domain variants; % binding
[1] = target: T1, human LAMA4 LG4-5 modules displayed on …
From the text: (§1) LGde1 has a full-length G domain (i.e., LG1-5) with LG1 deleted, LGde2 has a full-length G domain with LG2 deleted, and LGde3 has a full-length G domain with LG3 deleted. Recombinant MCAM-Fc protein was able to specifically bind 293 cells expressing LAMA4 variants LG1-5, LG1-3, and LGde 1 (LG23), but not 293 cells expressing LAMA 4 variants LG4-5, LGde2 (LG13), or LGde3 (LG12).

[2] = target: T2, human LAMA4 LG1-3 modules displayed on …
From the text: as §1

[3] = target: T3, human LAMA4 G domain (LG1-5) displayed …
From the text: as §1

Row | binding result [1] | binding result [2] | binding result [3] | Binder
1 | no binding |  |  | B1
2 |  | binds | binds | B2

— patent US20170158755A1 (PROTHENA BIOSCIENCES, published 2017)
